In patent publication US20240270821A1, “GIP/GLP1/GCG TRI-RECEPTOR AGONISTS AND USES THEREOF” (priority 2023, published 2024):

Assays:
Assay in all cases: cell-based or functional assay
[1] = target: T1, human GIP receptor (human) (UniProt P48546)
T1 sequence (looked up): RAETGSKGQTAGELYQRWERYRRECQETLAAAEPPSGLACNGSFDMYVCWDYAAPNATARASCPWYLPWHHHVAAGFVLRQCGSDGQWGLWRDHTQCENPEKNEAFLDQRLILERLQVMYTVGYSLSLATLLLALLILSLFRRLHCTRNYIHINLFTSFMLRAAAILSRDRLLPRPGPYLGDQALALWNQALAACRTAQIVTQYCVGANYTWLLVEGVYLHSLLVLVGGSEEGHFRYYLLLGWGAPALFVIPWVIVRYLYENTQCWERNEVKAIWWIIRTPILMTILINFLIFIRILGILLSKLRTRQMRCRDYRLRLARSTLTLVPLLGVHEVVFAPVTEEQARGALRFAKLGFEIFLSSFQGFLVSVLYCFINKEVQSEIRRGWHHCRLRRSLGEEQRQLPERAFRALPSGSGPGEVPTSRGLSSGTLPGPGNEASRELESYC

[2] = target: human glucagon receptor (human) (UniProt P47871)
Chain of human glucagon receptor (human) (P47871 26-477): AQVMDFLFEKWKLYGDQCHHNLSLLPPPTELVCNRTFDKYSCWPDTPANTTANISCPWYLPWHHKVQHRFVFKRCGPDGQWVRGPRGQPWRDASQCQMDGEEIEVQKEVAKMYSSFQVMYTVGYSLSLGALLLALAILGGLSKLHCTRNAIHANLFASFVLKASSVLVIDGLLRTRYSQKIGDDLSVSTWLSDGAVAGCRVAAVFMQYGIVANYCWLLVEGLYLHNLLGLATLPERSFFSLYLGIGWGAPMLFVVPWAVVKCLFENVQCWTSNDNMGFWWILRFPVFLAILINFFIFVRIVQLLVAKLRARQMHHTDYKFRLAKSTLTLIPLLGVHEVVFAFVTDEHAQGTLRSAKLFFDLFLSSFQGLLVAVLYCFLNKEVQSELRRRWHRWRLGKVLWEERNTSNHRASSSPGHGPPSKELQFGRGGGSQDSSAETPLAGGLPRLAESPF

[3] = target: hGLP-1R (Homo sapiens, UniProt P43220)
Chain of hGLP-1R (P43220 24-463): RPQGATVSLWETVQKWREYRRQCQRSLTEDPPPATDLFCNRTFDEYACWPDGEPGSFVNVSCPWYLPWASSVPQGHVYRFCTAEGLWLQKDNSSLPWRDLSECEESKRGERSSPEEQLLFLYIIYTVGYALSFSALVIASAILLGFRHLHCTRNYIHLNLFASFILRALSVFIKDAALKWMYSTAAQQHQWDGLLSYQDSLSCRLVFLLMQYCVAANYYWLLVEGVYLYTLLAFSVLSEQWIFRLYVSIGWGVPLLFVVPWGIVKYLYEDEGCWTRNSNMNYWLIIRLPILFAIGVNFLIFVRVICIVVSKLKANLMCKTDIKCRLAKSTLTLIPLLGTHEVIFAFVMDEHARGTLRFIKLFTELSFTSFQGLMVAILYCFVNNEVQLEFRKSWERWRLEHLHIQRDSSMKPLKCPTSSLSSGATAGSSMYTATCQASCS

B1: Example 20 (peptide)
chain: YXQGTFTSDFSKXLDKKAQXAFIEWLLAGGPSSGEPPPSEG
modifications: non-natural residues, acyl lysine, C-terminal amide; synthetic construct; SITE 2: note = 2-Aminoisobutyric Acid; SITE 13: note = alpha-methyl-leucine; SITE 17: note = Lysine is chemically modified through conjugation of the epsilon-amino group of the Lysine side chain with (2-[2-(2-Amino-ethoxy)-ethoxy]-acetyl)-(gamma-Glu)-CO-(CH2) 18-CO2H; SITE 20: n
In the case of B1, the Relative cAMP EC50 [1] is reported as 0.381 nM, the cAMP Rel EC50 (in the presence of 1% HSA) [1] is reported as 42.3 nM and the Relative cAMP EC50 [2] is reported as 15.4 nM. It also gave a cAMP Rel EC50 (in the presence of 1% HSA) [2] of 587 nM, a Relative cAMP EC50 [3] of 2.45 nM and a cAMP Rel EC50 (in the presence of 1% HSA) [3] of 326 nM.

B2: Example 47 (peptide)
chain: YXQGTFTSDFSKXLDKKAQXAFIEYLLEGAPSSGAPPPSEG
modifications: synthetic construct; SITE 2: note = 2-Aminoisobutyric Acid; SITE 13: note = alpha-methyl-leucine; SITE 17: note = Lysine is chemically modified through conjugation of the epsilon-amino group of the Lysine side chain with (2-[2-(2-Amino-ethoxy)-ethoxy]-acetyl)-(gamma-Glu)-CO-(CH2) 18-CO2H; SITE 20: n
For B2, the Relative cAMP EC50 [1] was 0.388 nM, the Relative cAMP EC50 [2] was 5.61 nM and the Relative cAMP EC50 [3] was 3.4 nM.

B3: Example 1203 (peptide)
chain: YXQATXTSDXXIXLDXKAQXEFIEXLIEGGPSSGAPPPSGS
modifications: synthetic construct; SITE 2: note = 2-Aminoisobutyric Acid; SITE 4: note = D-amino acid; SITE 6: note = alpha-methyl-2-fluoro-L-phenylalanine; SITE 10: note = 3-(4-Pyridyl)-L-alanine; SITE 11: note = alpha-methyl-L-serine; SITE 13: note = alpha-methyl-leucine; SITE 16: note = L-ornithine; SITE 17: n
In the case of B3, the Relative cAMP EC50 [1] is reported as 0.0774 nM, the cAMP Rel EC50 (1% HSA) [1] is reported as 8.5 nM and the Relative cAMP EC50 [2] is reported as 2.58 nM. It also gave a cAMP Rel EC50 (1% HSA) [2] of 436 nM, a Relative cAMP EC50 [3] of 0.292 nM and a cAMP Rel EC50 (1% HSA) [3] of 38.9 nM.

B4: Example 1204 (peptide)
chain: YXQATXTSDXXIXLDXKAQXEFIEXLVEGGPSSGAPPPSGS
modifications: synthetic construct; SITE 2: note = 2-Aminoisobutyric Acid; SITE 4: note = D-amino acid; SITE 6: note = alpha-methyl-2-fluoro-L-phenylalanine; SITE 10: note = 3-(4-Pyridyl)-L-alanine; SITE 11: note = alpha-methyl-L-serine; SITE 13: note = alpha-methyl-leucine; SITE 16: note = L-ornithine; SITE 17: n
B4 gave a Relative cAMP EC50 [1] of 0.21 nM, a cAMP Rel EC50 (1% HSA) [1] of 15.8 nM and a Relative cAMP EC50 [2] of 3.5 nM. For the same binder, the cAMP Rel EC50 (1% HSA) [2] was 507 nM, the Relative cAMP EC50 [3] was 0.338 nM and the cAMP Rel EC50 (1% HSA) [3] was 37.4 nM.

B5: Example 1210 (peptide)
chain: YXQGTXTSDXXIXLDXXAQXEFIEXLVEGGPSSGAPPPSGS
modifications: synthetic construct; SITE 2: note = 2-Aminoisobutyric Acid; SITE 6: note = alpha-methyl-2-fluoro-L-phenylalanine; SITE 10: note = 3-(4-Pyridyl)-L-alanine; SITE 11: note = alpha-methyl-L-serine; SITE 13: note = alpha-methyl-leucine; SITE 16: note = L-ornithine; SITE 17: note = Ornithine is chemically
B5 was tested, and the Relative cAMP EC50 [1] was 0.00704 nM, the cAMP Rel EC50 (1% HSA) [1] was 0.635 nM and the Relative cAMP EC50 [2] was 2.25 nM. The cAMP Rel EC50 (1% HSA) [2] was 288 nM, the Relative cAMP EC50 [3] was 0.375 nM and the cAMP Rel EC50 (1% HSA) [3] was 38.1 nM.

B6: Example 1211 (peptide)
chain: YXQGTXTSDXXIXLDXXAQXEFIEXLIEGGPSSGAPPPSGS
modifications: synthetic construct; SITE 2: note = 2-Aminoisobutyric Acid; SITE 6: note = alpha-methyl-2-fluoro-L-phenylalanine; SITE 10: note = 3-(4-Pyridyl)-L-alanine; SITE 11: note = alpha-methyl-L-serine; SITE 13: note = alpha-methyl-leucine; SITE 16: note = L-ornithine; SITE 17: note = Ornithine is chemically
B6 gave a Relative cAMP EC50 [1] of 0.00592 nM, a cAMP Rel EC50 (1% HSA) [1] of 0.489 nM and a Relative cAMP EC50 [2] of 1.45 nM. It also gave a cAMP Rel EC50 (1% HSA) [2] of 211 nM, a Relative cAMP EC50 [3] of 0.276 nM and a cAMP Rel EC50 (1% HSA) [3] of 33.2 nM.

B7: Example 1208 (peptide)
chain: YXQGTXTSDXXIXLDXKAQXEFIEXLIEGGPSSGEPPPSGS
modifications: not fully specified; synthetic construct; SITE 2: note = 2-Aminoisobutyric Acid; SITE 6: note = alpha-methyl-2-fluoro-L-phenylalanine; SITE 10: note = 3-(4-Pyridyl)-L-alanine; SITE 11: note = alpha-methyl-L-serine; SITE 13: note = alpha-methyl-leucine; SITE 16: note = L-ornithine; SITE 17: note = Lysine is chemically mo
Binder B7 has a Relative cAMP EC50 [1] of 0.00907 nM, a cAMP Rel EC50 (1% HSA) [1] of 0.786 nM and a Relative cAMP EC50 [2] of 3.52 nM. It also gave a cAMP Rel EC50 (1% HSA) [2] of 451 nM, a Relative cAMP EC50 [3] of 0.526 nM and a cAMP Rel EC50 (1% HSA) [3] of 44.8 nM.

B8: Example 1209 (peptide)
chain: YXQGTXTSDXSIXLDXXAQXXFIEXLIEGGPSSGEPPPETE
modifications: synthetic construct; SITE 2: note = 2-Aminoisobutyric Acid; SITE 6: note = alpha-methyl-2-fluoro-L-phenylalanine; SITE 10: note = 3-(4-Pyridyl)-L-alanine; SITE 13: note = alpha-methyl-leucine; SITE 16: note = L-ornithine; SITE 17: note = Ornithine is chemically modified through conjugation of the ep
B8 showed a Relative cAMP EC50 [1] of 0.00819 nM, a cAMP Rel EC50 (1% HSA) [1] of 0.565 nM and a Relative cAMP EC50 [2] of 0.97 nM. The cAMP Rel EC50 (1% HSA) [2] was 124 nM, the Relative cAMP EC50 [3] was 0.41 nM and the cAMP Rel EC50 (1% HSA) [3] was 37.7 nM.

B9: Example 1213 (peptide)
chain: YXQGTXTSDXXIXLDXXAQXEFIEXLIEGGPSSGAPPPSGGGE
modifications: synthetic construct; SITE 2: note = 2-Aminoisobutyric Acid; SITE 6: note = alpha-methyl-2-fluoro-L-phenylalanine; SITE 10: note = 3-(4-Pyridyl)-L-alanine; SITE 11: note = alpha-methyl-L-serine; SITE 13: note = alpha-methyl-leucine; SITE 16: note = L-ornithine; SITE 17: note = Ornithine is chemically
For B9, the Relative cAMP EC50 [1] was 0.00721 nM, the cAMP Rel EC50 (1% HSA) [1] was 0.616 nM and the Relative cAMP EC50 [2] was 1.69 nM. For the same binder, the cAMP Rel EC50 (1% HSA) [2] was 268 nM, the Relative cAMP EC50 [3] was 0.423 nM and the cAMP Rel EC50 (1% HSA) [3] was 44 nM.

B10: Example 1234 (peptide)
chain: YXQGTXTSDXXIXLDXQAQXEFIEXLIEGGPSSGAPPPSGGGE
modifications: not fully specified; no fatty acid conjugated; synthetic construct; SITE 2: note = 2-Aminoisobutyric Acid; SITE 6: note = alpha-methyl-2-fluoro-L-phenylalanine; SITE 10: note = …; SITE 11: note = alpha-methyl-L-serine; SITE 13: note = alpha-methyl-leucine; SITE 16: note = L-ornithine; SITE 20: note = 3-(4-Pyridyl)-L-alanine
Work on B10 yielded a Relative cAMP EC50 [1] of 0.0135 nM, a cAMP Rel EC50 (1% HSA) [1] of 0.011 nM and a Relative cAMP EC50 [2] of 11.6 nM. For the same binder, the cAMP Rel EC50 (1% HSA) [2] was 11.7 nM, the Relative cAMP EC50 [3] was 1.17 nM and the cAMP Rel EC50 (1% HSA) [3] was 1.15 nM.

B11: Example 1236 (peptide)
chain: YXQGTXTSDXSIXLDXKAAXAFIEXLLEGGPSSGEPPPS
modifications: synthetic construct; SITE 2: note = 2-Aminoisobutyric Acid; SITE 6: note = alpha-methyl-2-fluoro-L-phenylalanine; SITE 10: note = 3-(4-Pyridyl)-L-alanine; SITE 13: note = alpha-methyl-leucine; SITE 16: note = L-ornithine; SITE 17: note = Lysine is chemically modified through conjugation of the epsil
Binder B11 has a Relative cAMP EC50 [1] of 0.052 nM, a cAMP Rel EC50 (1% HSA) [1] of 11.9 nM and a Relative cAMP EC50 [2] of 0.947 nM. It also gave a cAMP Rel EC50 (1% HSA) [2] of 502 nM, a Relative cAMP EC50 [3] of 0.304 nM and a cAMP Rel EC50 (1% HSA) [3] of 95.8 nM.
